Reference: the supplement of paper PMC9112550, “Optimization of the antimicrobial peptide Bac7 by deep mutational scanning” (BMC Biology, 2022)

Tested on: Escherichia coli TOP10
Test: shrunken log2 fold change of peptide-encoding DNA abundance (4.5 h post-induction vs induction); higher = less antimicrobial activity (less host growth inhibition)
Settings: time post-induction: 4.5 h; library: site-saturation at positions 5, 18, 19, 20
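Note: peptides expressed intracellularly from a pBAD plasmid library in pooled LB shake-flask culture, induced with 0.3% L-arabinose, DNA abundance read by NGS, three biological replicates, DESeq2 with apeglm shrinkage.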

Sequence	shrunken log2 fold change
RRIRCRPPRLPRPRPRPNPVPRP	-0.209
RRIRWRPPRLPRPRPRPSYLPRP	-0.417
RRIRNRPPRLPRPRPRPYRWPRP	-0.147
RRIRTRPPRLPRPRPRPLSSPRP	-0.0339
RRIRKRPPRLPRPRPRPTSLPRP	-0.00423
RRIRCRPPRLPRPRPRPFGEPRP	-0.282
RRIRWRPPRLPRPRPRPWNIPRP	-0.0879
RRIRNRPPRLPRPRPRPGHAPRP	0.32
RRIRYRPPRLPRPRPRPRCRPRP	-0.26
RRIRQRPPRLPRPRPRPRSPPRP	0.0984
RRIRDRPPRLPRPRPRPPFSPRP	0.0121
RRIRKRPPRLPRPRPRPVSIPRP	-0.0178
RRIRKRPPRLPRPRPRPFDNPRP	0.057
RRIRDRPPRLPRPRPRPYFDPRP	-0.0823
RRIRRRPPRLPRPRPRPSPPPRP	0.435
RRIRTRPPRLPRPRPRPYLVPRP	-0.489
RRIRHRPPRLPRPRPRPFNLPRP	-0.189
RRIRSRPPRLPRPRPRPKFGPRP	-0.15
RRIRPRPPRLPRPRPRPMVSPRP	-0.0725
RRIRPRPPRLPRPRPRPPTDPRP	0.184
RRIRVRPPRLPRPRPRPNCIPRP	-0.213
RRIRERPPRLPRPRPRPEKLPRP	-0.296
RRIRCRPPRLPRPRPRPVAPPRP	0.436
RRIRNRPPRLPRPRPRPRPDPRP	0.0914
RRIRYRPPRLPRPRPRPKLEPRP	0.00557

Sequence	shrunken log2 fold change
RRIRCRPPRLPRPRPRPQQMPRP	0.013
RRIRGRPPRLPRPRPRPWFWPRP	0.6
RRIRKRPPRLPRPRPRPCGDPRP	0.466
RRIRYRPPRLPRPRPRPIWWPRP	0.136
RRIRPRPPRLPRPRPRPVLIPRP	-0.237
RRIRQRPPRLPRPRPRPFTEPRP	-0.223
RRIRDRPPRLPRPRPRPSYDPRP	-0.175
RRIRARPPRLPRPRPRPQRKPRP	0.365
RRIRFRPPRLPRPRPRPHSKPRP	-0.327
RRIRLRPPRLPRPRPRPASPPRP	0.0633
RRIRDRPPRLPRPRPRPCWCPRP	-0.00088
RRIRKRPPRLPRPRPRPLTKPRP	0.457
RRIRERPPRLPRPRPRPLKMPRP	-0.175
RRIRQRPPRLPRPRPRPGWIPRP	0.179
RRIRCRPPRLPRPRPRPENKPRP	-0.415
RRIRKRPPRLPRPRPRPRCRPRP	0.506
RRIRKRPPRLPRPRPRPFIGPRP	-0.0147
RRIRFRPPRLPRPRPRPHNGPRP	-0.0493
RRIRCRPPRLPRPRPRPISCPRP	-0.0979
RRIRIRPPRLPRPRPRPTFTPRP	-0.373
RRIRIRPPRLPRPRPRPKSMPRP	-0.208
RRIRLRPPRLPRPRPRPNSYPRP	-0.3
RRIRDRPPRLPRPRPRPEWFPRP	0.257
RRIRDRPPRLPRPRPRPMEQPRP	-0.164
RRIRTRPPRLPRPRPRPRMCPRP	0.00183

Sequence	shrunken log2 fold change
RRIRFRPPRLPRPRPRPLKAPRP	0.693
RRIRWRPPRLPRPRPRPHRKPRP	0.113
RRIRARPPRLPRPRPRPLDDPRP	0.875
RRIRRRPPRLPRPRPRPASNPRP	0.472
RRIRYRPPRLPRPRPRPHLRPRP	-0.485
RRIRGRPPRLPRPRPRPRTTPRP	1.06
RRIRTRPPRLPRPRPRPYYCPRP	-0.249
RRIRIRPPRLPRPRPRPMAIPRP	-0.274
RRIRWRPPRLPRPRPRPNQCPRP	-0.384
RRIRKRPPRLPRPRPRPLQIPRP	0.0389
RRIRERPPRLPRPRPRPAVHPRP	-0.144
RRIRTRPPRLPRPRPRPLLDPRP	0.214
RRIRTRPPRLPRPRPRPPCQPRP	-0.215
RRIRWRPPRLPRPRPRPDSYPRP	0.00709
RRIRSRPPRLPRPRPRPRVQPRP	-0.25
RRIRPRPPRLPRPRPRPCYVPRP	-0.469
RRIRKRPPRLPRPRPRPCHCPRP	-0.241
RRIRHRPPRLPRPRPRPSVIPRP	-0.369
RRIRSRPPRLPRPRPRPVCRPRP	0.199
RRIRTRPPRLPRPRPRPQHHPRP	-0.453
RRIRARPPRLPRPRPRPHDAPRP	0.122
RRIRWRPPRLPRPRPRPCDEPRP	-0.0781
RRIRTRPPRLPRPRPRPWHQPRP	-0.0236
RRIRTRPPRLPRPRPRPMCQPRP	-0.0075
RRIRRRPPRLPRPRPRPEVVPRP	0.472

Sequence	shrunken log2 fold change
RRIRWRPPRLPRPRPRPAYEPRP	-0.0308
RRIRKRPPRLPRPRPRPQEPPRP	0.01
RRIRGRPPRLPRPRPRPTENPRP	0.682
RRIRPRPPRLPRPRPRPGLAPRP	0.841
RRIRHRPPRLPRPRPRPIDNPRP	-0.359
RRIRQRPPRLPRPRPRPFEPPRP	-0.238
RRIRVRPPRLPRPRPRPYDSPRP	-0.126
RRIRFRPPRLPRPRPRPQVWPRP	0.135
RRIRDRPPRLPRPRPRPKIIPRP	-0.0166
RRIRHRPPRLPRPRPRPIFHPRP	-0.155
RRIRPRPPRLPRPRPRPFFRPRP	-0.0565
RRIRMRPPRLPRPRPRPLLEPRP	2.21
RRIRMRPPRLPRPRPRPITWPRP	-0.327
RRIRWRPPRLPRPRPRPDCRPRP	0.0695
RRIRIRPPRLPRPRPRPCTLPRP	-1.08
RRIRVRPPRLPRPRPRPIMAPRP	-0.111
RRIRARPPRLPRPRPRPQKFPRP	-0.509
RRIRQRPPRLPRPRPRPFNCPRP	-0.0275
RRIRDRPPRLPRPRPRPQILPRP	0.132
RRIRLRPPRLPRPRPRPNMNPRP	-0.68
RRIRGRPPRLPRPRPRPTNIPRP	0.298
RRIRYRPPRLPRPRPRPANHPRP	-0.463
RRIRQRPPRLPRPRPRPGVHPRP	0.0118
RRIRVRPPRLPRPRPRPGFGPRP	0.408
RRIRMRPPRLPRPRPRPGNFPRP	0.121

Sequence	shrunken log2 fold change
RRIRYRPPRLPRPRPRPGEFPRP	-0.35
RRIRCRPPRLPRPRPRPYHMPRP	-0.56
RRIRQRPPRLPRPRPRPPGRPRP	0.853
RRIRDRPPRLPRPRPRPANPPRP	0.234
RRIRIRPPRLPRPRPRPEDLPRP	-0.00555
RRIRPRPPRLPRPRPRPQNKPRP	-0.479
RRIRLRPPRLPRPRPRPYDGPRP	0.0118
RRIRSRPPRLPRPRPRPNSYPRP	-0.00251
RRIRLRPPRLPRPRPRPYDQPRP	-0.562
RRIRSRPPRLPRPRPRPHGGPRP	0.103
RRIRGRPPRLPRPRPRPHFMPRP	0.152
RRIRGRPPRLPRPRPRPTDNPRP	0.283
RRIRERPPRLPRPRPRPCQAPRP	-0.0282
RRIRSRPPRLPRPRPRPFNFPRP	-0.112
RRIRQRPPRLPRPRPRPAISPRP	-0.292
RRIRIRPPRLPRPRPRPCGGPRP	0.188
RRIRERPPRLPRPRPRPYTLPRP	-0.338
RRIRTRPPRLPRPRPRPFQVPRP	-0.0305
RRIRFRPPRLPRPRPRPPFPPRP	0.454
RRIRKRPPRLPRPRPRPEVWPRP	0.951
RRIRHRPPRLPRPRPRPCFLPRP	-0.0717
RRIRQRPPRLPRPRPRPVCEPRP	-0.00878
RRIRHRPPRLPRPRPRPHKWPRP	-0.0897
RRIRERPPRLPRPRPRPEFMPRP	-0.096
RRIRIRPPRLPRPRPRPEWHPRP	-0.514

Sequence	shrunken log2 fold change
RRIRQRPPRLPRPRPRPGMTPRP	0.00903
RRIRFRPPRLPRPRPRPSMTPRP	-0.227
RRIRQRPPRLPRPRPRPHIRPRP	-0.209
RRIRVRPPRLPRPRPRPYMKPRP	-1.04
RRIRGRPPRLPRPRPRPNHNPRP	-0.409
RRIRMRPPRLPRPRPRPGVKPRP	0.172
RRIRWRPPRLPRPRPRPQPMPRP	0.145
RRIRSRPPRLPRPRPRPEIRPRP	-0.0706
RRIRHRPPRLPRPRPRPLEWPRP	-0.0135
RRIRIRPPRLPRPRPRPQQRPRP	-0.104
RRIRTRPPRLPRPRPRPMFYPRP	-0.359
RRIRPRPPRLPRPRPRPEIHPRP	-0.536
RRIRFRPPRLPRPRPRPLRYPRP	-0.192
RRIRNRPPRLPRPRPRPLIKPRP	-0.651
RRIRVRPPRLPRPRPRPFVWPRP	-0.03
RRIRIRPPRLPRPRPRPASTPRP	-0.0836
RRIRQRPPRLPRPRPRPITAPRP	-0.503
RRIRIRPPRLPRPRPRPYMIPRP	-0.307
RRIRKRPPRLPRPRPRPIHTPRP	0.101
RRIRMRPPRLPRPRPRPNPIPRP	0.188
RRIRERPPRLPRPRPRPSFGPRP	0.189
RRIRIRPPRLPRPRPRPEWKPRP	0.0442
RRIRPRPPRLPRPRPRPTIEPRP	-0.0748
RRIRDRPPRLPRPRPRPDTKPRP	0.0114
RRIRDRPPRLPRPRPRPGPHPRP	0.132
